From the supplement of paper PMC12042874
± gives the uncertainty stated by the source.

Test: amyloid nucleation score (Sup35N fusion, yeast selection) (log enrichment); library NNK3; higher = more nucleation; inactive = no reads after selection
Method in brief: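 Output and input plasmid inserts were sequenced by Illumina after psi-negative yeast carrying Sup35N fused to peptides of 20 random codons had been induced 24 hours with 100 μM copper sulfate and grown 7 days at 30°C on medium lacking adenine and uracil. The nucleation score is the DiMSum log enrichment of output over input reads, centred on the mode score of non-aggregating sequences. Sequences with under 100 input reads were excluded.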

Row | Substance | amyloid nucleation score
1 | ISILLIFPCEAVIFLPF | inactive
2 | ISKWESKSSSGLDFL | inactive
3 | ISLFDNNLRGWMYGVFRSIA | inactive
4 | ISLGRCNNDHWRILVGTWSA | inactive
5 | ISLLYVFMLNR | 2.11 ± 0.078
6 | ISLSR | inactive
7 | ISPGRAGQVVSLAGHSYQAL | inactive
8 | ISRGVVIGTFRRLIERSCGT | inactive
9 | ISSLGKKTW | inactive
10 | ISSNVWARDIRNWLNVTGYC | inactive
11 | ISVGVLSVCCGIC | 2.57 ± 0.078
12 | ISVNALYNLMHKCNYNAKLR | inactive
13 | ISVSRKLLKCLVKCMNPGCG | inactive
14 | ITCGIKIFF | 2.76 ± 0.068
15 | ITCLNLINGGYHP | -0.066 ± 0.3
16 | ITESIVQFLAFWVRDTDYVC | inactive
17 | ITFIM | inactive
18 | ITGHSVLCWGNSSSTMCEMG | inactive
19 | ITHFIMCPYYDYQRDGHWIT | inactive
20 | ITIFDRMNH | inactive
21 | ITLRDVGGHGANLWEGMQFM | inactive
22 | ITMTCFCIMGAESISNLPMW | 1.33 ± 0.11
23 | ITNVWSVFKIRIGNCGFGAG | 1.9 ± 0.1
24 | ITSSVSFSRPYGVRGLLKKG | 0.002 ± 0.43

Row | Substance | amyloid nucleation score
25 | ITYAQSLKLCRTRVIGGLMY | 0.445 ± 0.2
26 | IVCCGSGSEEVGKLSGRIKN | inactive
27 | IVDAIILWCSKILIWVGIGQ | inactive
28 | IVEGHLSIIGWYEGNFPHML | 0.145 ± 0.42
29 | IVERSGVSGIWYLSGDLAKV | inactive
30 | IVFEMLPWPVG | -0.435 ± 1.9
31 | IVGNLRDKDNYIVGRLEDSD | inactive
32 | IVISEALVFASGYKQVFNSV | inactive
33 | IVKNDGNGHLLYTLCVFRFW | inactive
34 | IVLWVFVLTITLN | inactive
35 | IVMKALNAFWTRTMLMFHHM | inactive
36 | IVQLVIFLSRYDVLELCMHK | 0.07 ± 0.47
37 | IVREVGTA | inactive
38 | IVSKMAVYMAGTSALVLPLL | -0.086 ± 0.88
39 | IVTIFSFQYGWGFLCTRLNF | inactive
40 | IVTLCSIFDFAFVVTASTMG | 1.13 ± 0.16
41 | IVVCFRSRRFCSSRYHS | inactive
42 | IVVLNVNTPWSMFQGVGSIQ | 2.58 ± 0.085
43 | IVYLDIDVFFMFLCVASRTE | 1.59 ± 0.081
44 | IWGMIFIGKSSYDISDYVCH | inactive
45 | IWLVLESCNVPFL | inactive
46 | IWYRDSFLPSGRYWFLRINW | inactive
47 | IYCYRLALF | inactive
48 | IYGHCCIISAWVWGNESLVL | inactive

Row | Substance | amyloid nucleation score
49 | IYGLPRYFVGYGFFKSYVRL | inactive
50 | IYGNFS | inactive
51 | IYGNSFPEGIHRTGWESYHR | inactive
52 | IYIGQFSLVVCVIIDIDI | 1.75 ± 0.11
53 | IYIVTYICPVSSRLKGLLCQ | inactive
54 | IYMFVHIK | 1.68 ± 0.086
55 | IYNVFDDEDMICTSLVVSRS | inactive
56 | IYRLDSSTSCICHCFLILVF | inactive
57 | IYRSIRQAVLCLGLSGS | inactive
58 | IYSDHAL | inactive
59 | IYVGHK | inactive
60 | KAAEDMRGFHCGARKSIRVD | inactive
61 | KADECS | inactive
62 | KAKPVSKCA | inactive
63 | KALWCGYE | inactive
64 | KAPDVLVNGRIL | inactive
65 | KAVGRSIVYDFGSALCEMIN | 1.4 ± 0.12
66 | KAVQAVVLSLTGWFGVERLY | inactive
67 | KCCTGERYSLIGFLHFCGEM | 0.891 ± 0.15
68 | KCLEGLMVVANDWWVKCFTS | 0.671 ± 0.24
69 | KCMFMEDCPLPEWSDLEVGL | inactive
70 | KCSFFMFAVEKEAKNWMVTN | inactive
71 | KCTFFDTCVTQTCLFNMFGC | 2.34 ± 0.063
72 | KCWPIVCNLWNREWQCSLIR | inactive

Row | Substance | amyloid nucleation score
73 | KCYLKSGLDNLVYDLD | inactive
74 | KDYLWNILRIT | inactive
75 | KEMGW | inactive
76 | KEYGLFLYLNFFLDWFNFIN | inactive
77 | KFCGEH | inactive
78 | KFCISSKDKIF | inactive
79 | KFMIVVKCSM | 0.745 ± 0.2
80 | KFNSRNRS | inactive
81 | KGEDPPHCSTEIPCMSRQLL | inactive
82 | KGITYLNVRFKNRCPMVFGG | inactive
83 | KGLASSYRTTYAVDL | inactive
84 | KGLCL | inactive
85 | KGLSLGCIFKGLEFREQGVE | inactive
86 | KGMDMVI | inactive
87 | KGNRFPRVLGIMFAFLFGSE | inactive
88 | KGSTLLSNIARMVVTCKARP | inactive
89 | KICRIYAMGVLLSDTVSTMS | inactive
90 | KIFSSLFRK | 0.251 ± 0.18
91 | KILLHRRHVTPCFKCLNRLD | inactive
92 | KILRRNTWNMFPAALCGVSF | 0.997 ± 0.21
93 | KIMFLMGSASMDSTGTC | 0.863 ± 0.12
94 | KIQSSTNLPFGASL | inactive
95 | KIRIGW | inactive
96 | KISISD | inactive

Row | Substance | amyloid nucleation score
97 | KISLISTNCLYMVFPYRYSR | 2.13 ± 0.06
98 | KITSRGCN | inactive
99 | KIVFPLNLG | inactive
100 | KIYGIPYCTRVGCNLWPGAG | 0.294 ± 0.39
101 | KKYVVFNGCSPYM | inactive
102 | KLCDCVMLLFTLDTRIGNVL | 0.053 ± 0.7
103 | KLCVESRIIYTFV | inactive
104 | KLDLKCIIRHWV | inactive
105 | KLFGRCNSNSPIVGWIRCGL | inactive
106 | KLGGLSMRTSYIMPGRTFTS | inactive
107 | KLGIGFPWCGRLHIEHSKMR | inactive
108 | KLLCSLNLVIADEFLTKKGD | 1.85 ± 0.099
109 | KLLFLSYTYWWKSHFWRFRT | inactive
110 | KLLSSGFMMFWASYQTGYWR | inactive
111 | KLPGLFQLCDMCVIGLKNAY | 0.513 ± 0.17
112 | KLPMRVGLM | inactive
113 | KLPVKGRMPVVF | inactive
114 | KLVCRIIDAKAH | inactive
115 | KLVVNSKPYMNYVSVDEIIM | inactive
116 | KMHWNAGDQLYVRSPTHSLR | inactive
117 | KMKSAIIPVECGSR | inactive
118 | KMLQLVVGIRILVNRMSWSR | inactive
119 | KMTLYIFCLAFMLWESNQII | inactive
120 | KMWCNGMAISLHVRRLCQV | inactive

Row | Substance | amyloid nucleation score
121 | KNCIGRFW | inactive
122 | KNIKTSIIYSYYALIIR | 2.47 ± 0.074
123 | KNKYQLN | inactive
124 | KPNLRFLS | inactive
125 | KPWGPGIIGSGSRIMTDVVE | inactive
126 | KRDWHLVTMG | -0.134 ± 0.32
127 | KREAFNQALADNHQLQMLYE | 0.615 ± 0.12
128 | KRECYMIIHI | inactive
129 | KRISDRIFCFCLKHGVGLFG | inactive
130 | KRLFVTFFLSSLRGNILMWG | inactive
131 | KRLHTS | inactive
132 | KRMLCWFINKVIYLRYLWQV | inactive
133 | KSERLNLVGILVSLVRPVCL | inactive
134 | KSGICGCVGHLVHKPMQLRV | inactive
135 | KSGIV | 0.633 ± 0.19
136 | KSQLFLMWSSSKLLTYTVQA | inactive
137 | KSREWLLSYFCYGW | inactive
138 | KSVNLHA | inactive
139 | KTDTCRNIL | inactive
140 | KTFMSCFGMGKEEGLSHFPR | inactive
141 | KTHCCC | inactive
142 | KTSAVRLATNIVLTFHSILY | inactive
143 | KTSIRRCLSIRC | inactive
144 | KVCFCSLL | 2.94 ± 0.075

Row | Substance | amyloid nucleation score
145 | KVICVLFKIMKLF | 0.442 ± 0.18
146 | KVIKDNLEVCFLKSMWC | inactive
147 | KVLQPANVLRLTGFVSVRGV | inactive
148 | KVRSARVRMHHNRYDKEMSG | inactive
149 | KVTMPLQSYTLYSMYICLLS | inactive
150 | KWLVPTQG | inactive
151 | KWNCHLVLPLWIPGLVMMGR | inactive
152 | KWNHYWDIVFCTSYFNSTFM | 2.29 ± 0.066
153 | KYGWVLFYGCYYCGHGWTNL | inactive
154 | KYLWDLATHNIFAGSKMMDN | inactive
155 | KYNANYQSSYNIVRLYRVFW | inactive
156 | KYPNRKLF | inactive
157 | KYPSYLNLSCVAVKYVWCSE | 1.94 ± 0.071
158 | KYQLHYLDVFFYDVV | inactive
159 | KYWSLGNGCTTKRWSGGFVS | inactive
160 | KYYFRGWKTEPVTWFGCQAM | 0.488 ± 0.2
161 | KYYTSRNRWRYMV | -0.291 ± 0.68
162 | LAGCNPLASARFVWVI | inactive
